Data on five substances can be found in patent publication US20100278801A1.

The target of experiment [1] is NRG1-β (UniProt Q02297). The following applies: Fc fusion.
Target sequence in this assay (Q02297 other isoform, or with tags, fused parts or gaps): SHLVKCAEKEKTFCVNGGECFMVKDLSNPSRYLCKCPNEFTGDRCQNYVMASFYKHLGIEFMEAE
Experiment [2] addresses TGF-α (UniProt P01135). Particulars: Fc fusion.
Target sequence in this assay (P01135 40-89): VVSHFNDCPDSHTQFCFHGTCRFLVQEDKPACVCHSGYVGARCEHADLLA
Experiment [3] has as its target EGF (UniProt P01133). The experiment in a line: Eu-ligand saturation binding. Particulars: Fc fusion.
The target in experiment [4] is EGF (UniProt P01133). The experiment is described as follows: Eu-EGF competition. Particulars: Fc fusion.
Experiment [5] has as its target NRG1-β (UniProt Q02297). The experiment in a line: 125I-NRG1-β saturation binding, heterodimer immobilised on anti-Fc coated plate.
Target sequence in this assay (Q02297 other isoform, or with tags, fused parts or gaps limits assumed): as the sequence (Q02297 other isoform, or with tags, fused parts or gaps) above
Experiment [6] deals with TGF-α (UniProt P01135). The experiment is described as follows: 125I-TGF-a saturation binding, heterodimer immobilised on anti-Fc coated plate; not saturated at 100 nM.
Target sequence in this assay (P01135 40-89 limits assumed): as the sequence (P01135 40-89) above
Experiment [7] deals with TGF-α (UniProt P01135). The experiment in a line: biotin-ligand binding. The following applies: Fc fusion.
Target sequence in this assay (P01135 40-89): as above
In the next experiment the target is HB-EGF (UniProt Q99075). The experiment in a line: biotin-ligand binding. The following applies: Fc fusion.

“And” between values parts separate entries of the source, which are not always exact repeats. Identical values can stand only once. Like-named read-outs stand apart in the source and are kept apart here.

Sequence of EGF (P01133 971-1023): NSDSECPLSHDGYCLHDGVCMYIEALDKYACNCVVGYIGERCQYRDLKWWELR
Sequence of HB-EGF (Q99075 63-148): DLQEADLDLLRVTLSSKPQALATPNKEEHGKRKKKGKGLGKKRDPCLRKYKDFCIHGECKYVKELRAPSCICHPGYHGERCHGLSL

For HER3:Fc (from UniProt P21860 20-643), the equilibrium dissociation constant (Kd) with NRG1-β [1] was 17.1 nM and 17 nM.
“EGFRT15S:Fc homodimer (from UniProt P00533 25-645)” returned a Kd with TGF-α [2] of 1.7 nM.
“RB242 (from UniProt P00533 25-645; P21860 20-643)” showed a Kd with EGF [3] of 0.77 nM. Besides, in the experiment with EGF [4], the inhibition constant (Ki) worked out at 0.89 nM.
As to “RB222 (from UniProt P00533 25-645; P21860 20-643) (Fc fusion)”, the equilibrium dissociation constant (Kd) in the experiment with NRG1-β [5] is 1.6 nM; in the experiment with TGF-α [6], more than 30 nM.
“RB222 (from UniProt P00533 25-645; P21860 20-643)”: the Kd with TGF-α [7] is 42.6 nM; with HB-EGF it was 1.58 nM.

In general, Kd refers to the constant that tells how readily two partners part at equilibrium. Read a low Kd as higher affinity. As a reminder, the Ki is a dissociation constant, usually derived from enzyme kinetics or from competition with a known ligand. Low readings indicate a stronger hold on the target, high ones a looser hold on the target.
